41 sequences from the nanobody polyreactivity screen of Harvey et al. (2022) can be followed below.

A short description of the data set: yeast display, Sf9 membrane polyspecificity reagent, FACS + sequencing; frameworks hold sequencing errors. Put shortly: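 A synthetic nanobody library was expressed on Saccharomyces cerevisiae BJ5465 by galactose induction for 36–48 hours. The library was stained for 1 hour at 4 °C with 10% biotinylated, detergent-solubilized Sf9 membrane reagent and enriched with streptavidin microbeads before FACS. Low and high (top ~1%) gates were set on anti-HA fluorescence for expression and streptavidin fluorescence for reagent binding, and each polyreactivity label reflects the gate of origin.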
As for “QVQLGESGGGLVQAGGSLRLSCAASGIIYKYAMGWYRQAPGQERELVATITWSDCSTYYADSVKGRFTISRDNAKNTVSLQMNSLKPEDTAVYYCAADDYYGYDYWGQGTQVTVSS”, the “polyreactivity (PSR sort gate)” value is listed as “low polyreactivity”.
As to “QVQLVESGGGLVQAGGSLRLSCAASGRTFYDYAMGWYRQAPGKERELVASIRGSDGSTYYADSVKGRFTISRDNAKNTVYLQMNSLKPEDTEVYYCAARGFYGTNGRVYITSYYYWGQGTQVTVSS”, the “polyreactivity (PSR sort gate)” value was “high polyreactivity”.
Take “QVQHVESRGGLVQAGGSLRLSCAASGFTFSRNAMGRYRQAPGKESDLVAAIDSGGSTDYADSVKGRFTNSRDNAKNTVYLQMNSLKPADTAVYYCAKASSATRYVQLRQDYDYWGQGTKVTVSS”: the “polyreactivity (PSR sort gate)” value is given as “low polyreactivity”.
Take “QFQLVESGGGLVQAGGSLRLSCAASGYTLEYNAMGWYRQAPGKDRELGARIRWSGSSTYYADSVKGRFTISRDNAKNTVYLQMNSLKPEDTAVYYCATRYRRWKYDYWGQGTQVTVSS”: the “polyreactivity (PSR sort gate)” value is on record as “high polyreactivity”.
As to “QVQLVESGGGLVQAGGSLRLSCAASGSTFRRYAMGWYRQAPGKERELGAAISRSGGTTYYADSVKGRFTISRDNAKNTVYLQMNSLKPEDTAVYYCNARYPVVRYDYWGQGTQVTVSS”, the “polyreactivity (PSR sort gate)” value is “high polyreactivity”.
“QVQLVESGGGLVHAGGSLRLSCAASGSIFPPYAMGWYRQAPVKERELVAAITRSGGSTYYADSVKGRFTISRDNAKNTVYLQLNSLIPEDTAVSDCADRYPGGYGYWGQGTQVTVSS”: the “polyreactivity (PSR sort gate)” value was “high polyreactivity”.
For “QVQLVESGGGLVQAGGSLRLSCAASGRTFSVNAMGWYRQAPGKERELVAAITSGASTNYADSVKGRFTMSRDNAKNTVYLQMNSLKPEDTAVYYCAADATYGHVPAEYDYWGQGTQVTVSS”, the “polyreactivity (PSR sort gate)” value is “low polyreactivity”.
Consider “QGQLVESGGGLVQAGGSLRLSCPASGYIFWTNNMGWYRQSPGKERELVAAISYSGSSTYYADSVKGRFTISRDNAKNTVYLQMNSLKPEDTAVYYCAKKVRRYPTRYDSWGQGTQVTVSS”, for which the “polyreactivity (PSR sort gate)” value is listed as “high polyreactivity”.
Regarding “QVQLVESGGGLVQAGGSLRLSCAASGFTFYTYDMGWYRQAPGKERALVAAITSGVSTNYADSVKGRFTISRDNAKNTVYLQMNSLKPEDTAVYYCNKDVRPAYRWYDYWGQDTQVTVSS”, the “polyreactivity (PSR sort gate)” value is “low polyreactivity”.
“QVQLVESGGGLVQAGGSLRLSCAASGNTFRWYVMGWYRQAPGKERELVAAITSSGSTTYYADSVKGRFTISRDNAKNTVYLQLNSLKPEDTAVYYCAARNYGPYDYWGQGTQVTVSS”: the “polyreactivity (PSR sort gate)” value is “low polyreactivity”.
Take “QVQLVESGGGLVQAGGSLRLSCAASGYIFTYYTMGWYRQAPGKERELVAAITSSGSRTRYADSVKGRFTISRDNAKNTVYLQMNSLKPEDTAVYYCAAVYRLKSGVEWRDSQFGYWGQGTQVTVSS”: the “polyreactivity (PSR sort gate)” value is given as “high polyreactivity”.
The same measure for “QVQLVESGGGLVQAGGSLRLSCAASGRIFIDYAMGWYRQAPGKERELVATITSSGGSTYYADSVKGRFTISRDNAKNTVYLQMNSLKPEDTAVYYCNKEGSYDYDFWGQGTQVTVSS”: “low polyreactivity”; for “QVQLVESGGGLVQAGGSLRLSCAASGLTLYYYAMGWYRQAPGKERELVAAMSYSGGSTYYADSVKGRFTISRDNAKNPVYLQMNSVKPEDTAVYYCAAVGDSDIRDEYWGQGTQVTVSS”: “low polyreactivity”; for “QVHLVESGGGLVQAGGSLRLSCAASGSTFQFNAMGWYRQAPGKERELVATISDGGSTSYADSVKGRFTISRDNAKNTVYLQMNSLKPEDTAVYFCARDRFYDFLRVDYWGQGTQVTVSS”: “low polyreactivity”.
The same measure for “QVQLVESGGGLVQAGGSLRLSCAASGRTFYTYAMGWYRQAPGKERELVAAINWSATRTYYADSVKGRFTISRDNAKNTVYLQMNSLKPEDTAVYYCNAVYYRSSYPSGRYGMDYWGQGTQVTVSS”: “high polyreactivity”; for “QVQLVESGGGLVQAGGSLRISCAPSGSTFIPNDMGWYRQAPGKERELVAAITVSGDDTYYADSVKGRFTISRDNAKNNVYVQMNILKPEVTAVYYCAAEWGLYVGQYEYWGQGTQVTVSS”: “low polyreactivity”; for “QVQLLESGGGLVQAGGSLRLSCAASGGTFRVYAMGWYRQAPVKEWELVAAISSGGSTNYADSVKGRFTISRDNAKNTVYLQMNSLIPEDTAVSYCNAKYRYRFARSPIYFYWGQGTQVTVSS”: “low polyreactivity”.
In the case of “QVQLVESGGGLVQAGGSLRLSCAASGRIFYTNAMGWYRQAPGKERELVAAISWRGGSTYYADSVKGRFTISRDNAKNTVYFQMNSLKPEDTAVYYCNRYYLSYNYDYWGQGTQVTVSS”, the “polyreactivity (PSR sort gate)” value was “high polyreactivity”.
On to “QVQLVESGGGLVQAGGSLRLTCAASGFTFSGYAMGWYRQAPGKERELVAAISSSGASTYYADSVKGRFRISRDNAKYTVYLQMNSLNPEDTAVYYCNTLYYFPYLWPYDYWGQGTQVTVSS”, for which the “polyreactivity (PSR sort gate)” value is recorded as “high polyreactivity”.
As for “QVQLVESGGGLVQAGGSLRLSCAASGRTFWYYAMGWYRQAPGHERELVAAITGRGGRTYYADSVTGRFTISRDNAKNTVYLQMNSLKPEDTAVYYCAARLPYLGGYDYWGQGTQVTVSS”, the “polyreactivity (PSR sort gate)” value is reported as “high polyreactivity”.
For the sequence “QVQLVASGGGLVQAGGSLRLSCAASGSIFIYYTMGWYRQAPGKERELVAAINRGGSTYYADSVKGRFTISRDNAKNTVYLQMNSLKPEDTAVYYCNARYYRLPYWDAVKYDYWGQGTQVTVSS”, the “polyreactivity (PSR sort gate)” value is given as “low polyreactivity”.
With “QVQLVESGGGLVQAGGSLRLSCDASGSTFAPNTMGWYRQAPGKVREFVADISFSGGSTYYADSVKGRFSISRDNAKNTVYLQMTSRKPEDTAVYYCNAYYSYWFTQYDYWGQGTQVTVSS” the entry was “high polyreactivity”.
With “QVQLVESGGGLVQAGGSLRLSCAASGFIFDYYAMGWDRQAPGKESELVAAIRRSGGTTYYADSVKGRFTISRDNAKNTVYLLMNSLKPEDTAVYYCNVDSGEFDYVWVYTYDYWGQGTQVTVSS” the entry was “low polyreactivity”.
Regarding “QVQLVESGGGLVQAGGSLRLSCAASGLTFGYNAMGWYRQAPGKERELVAAITYGGGRTYYADSVKGRFTISRDNAMNTVYLQMNSLKPEDPAVYYCNVVWKAYAEYDYWGQGTQVTVSS”, the “polyreactivity (PSR sort gate)” value is “high polyreactivity”.
In the case of “QVLLVESGGGLVQAGGSLRLSCAASGSTFPLYAMGWYRQAPGTERELVAAITSGGGNTYYADSVMGRFTISRDKAQNTVYLQMNSLKPEDTAVYYCAAVGGYKTYYSYEYDYWGQGTQVTVSS”, the “polyreactivity (PSR sort gate)” value is recorded as “low polyreactivity”.
The same measure for “QVQLVESGGGLVQAGGSLRLSCAASGRIFIKNAMGWNRQAPGKERELVAAISDSGDSTYYADSVKGRFTISRDNAKNSVYLQMNSLKPEDTAVYYCAADGADHRSEMYYWGQGTQVTVSS”: “low polyreactivity”.
As to “QVQLVESGGGLVQAGGSLRLSCAASGSTSGQNAKGWYRQPPGNERELVAAISSSAGSTYADSVKGRFTISRDNAKNTVYLQMNSLKPEDTAVYYCNVPYYYTRGSYGYWGQGTQVTVSS”, the “polyreactivity (PSR sort gate)” value is given as “low polyreactivity”.
The same measure for “QVQLVESGGGLVQAGGSLRLSCAASGGTIVGYAMGWYRQAPGKERELVAAIDSSGGSTYYADSVKGRFTISRDNAKNTVYLQMNSLKPEDTAVYYCAALSTNYYISPYYYYNSKGYDYWGQGTQVTVSS”: “high polyreactivity”; for “QVHLVESGGGLVQAGGSLRLSCAASGFTFPYYAMGWYRQAPGKERELVATIRSGGSTYYADSVKGRFTISRDNAKNSVYLQMNSLKPEDTAVYYCAKYQGLYSYEKYGYWGQGTQVTVSS”: “low polyreactivity”.
Regarding “QVQLVESGGGLVQAGGSLRLSCAASGRIFQWNTMGWYRQAPGKEREFVAAISGSGVSTYYADSVKGRFTISRDNAKNTVYLQMNSLKPEDTAVYYCATTYPAYGRRGYDYWGQGTQVNVSS”, the “polyreactivity (PSR sort gate)” value is listed as “high polyreactivity”.
With “QVQLVESGGVLVQAGGSLRLSCAASGFTFVAYTMGWYRQAPGKDRELVASIPNVGSTNYADSVKGRFTISRDKAMNTVYLLMNSLKPEDTAVYYCAAEYLGWHYLYLPFRDYDSWGQGTQVTVSS” the entry was “low polyreactivity”; with “QVQLVESGGGLVQAGGSLRLSCAASGITFYRNAMGWDRQAPGKERELVAAISSRGGRTYYADSVKGRFTISRDNAKNTVYVQMNSLKPEDTAVYYCAKGGKVGSTLEYDYWGQGTQVTVST”, “high polyreactivity”; with “QVQLVESGGGLVHAGGSLRLSCAASGFTFTAYARGWYRQATGKERELVAAINWSGSRTYNADSVKGRFTISRDNAKNTVYLQMNSLKPEDSAVYYCNTATSKSSYRHYDYWGQGTLVTVSS”, “high polyreactivity”.
The same measure for “QVQLVESGGCLVQAGGSLRLSCASTGSIIYWYTMGWYRQAHGKDRELVAASSSIDGNTYYADSVKGRFTISRDNAKNTVYLQMNSLKPEDTAVYYCPAAYYNTDYYYWGQGTQVTVSS”: “low polyreactivity”; for “QVQLVESGGGLVQAGGSLRLSCAASGRTFRANAMGWYRTAPGKEMELVAAISQRGGNTYYADSVKGRFTISRDNAKYTVYLQMNSLKPEDTAVYYCAADITTYRRGRYEYEFWGQGTQVTVSS”: “high polyreactivity”; for “QVQLVESGGGLVQAGGSLRLSCSASGIILPVYAMGWYRQAPGKEMELVAAISRDGGSTYYSDSVKGLFTISRDNAKNNVYLLMNSLKPEDTAVYYCNAVWRGIYFNGKFDYWGQGTQVTVSS”: “high polyreactivity”.
As to “QVQLVESGGGLVQAGGSLRLSCAASGYTFEFNVMGWYRQAPGKERELVASIRWGSTSYADSVKGRFTISRDNAKNTVYLQMNSLKPEDTAVYYCAAVTYDYWGQGTQVTVSS”, the “polyreactivity (PSR sort gate)” value is recorded as “low polyreactivity”.
“QVQHVESAGGLVQAGGSLRLSCAASGRTFSRYAMGWYRQAPGKERELVATITRGGSTNYADSVKGRFTISRDNAKNRVYLQMNSQKPEDTSVYYFIAGCFRYQGTLNHFYYWGQGTQVTVSS”: the “polyreactivity (PSR sort gate)” value is “low polyreactivity”.
On to “QVQLQESAGGLVQAGGSLRLRCSASGYSSCDASMGWYRQAPGKERELAASITKGSSTNYADSVKGRFTIRDNAKNTVYLQMNSLKPEDTAVWYCGVTYPYWGDYTYWGKGTQVTVSS”, for which the “polyreactivity (PSR sort gate)” value is “low polyreactivity”.
“QVQLVESGGGLVQAGGSLRLSCAASGLIFFFYAMGWYRQAPGKERELVAAISSGGTTNYADSVKGRFTISRDNAKNTVYLQMNSLKPEDTAVYYCAARPSTYWSLGQHYGISGYWGQGTQVTVSS”: the “polyreactivity (PSR sort gate)” value is given as “low polyreactivity”.
With “QVQLVESGGGFVQAGGSLRLICAASGSIDYNAMGWYRQAPGKERELVAAITQRGGRTYYADSVKGRFTISRDNAKNTVYLQMNSLKPEDTAVYYCNTKGNYGLGYKNYYWGQGTQVTVSS” the entry was “high polyreactivity”.
